Reference: article PMC10180074, “Improved Stability and Catalytic Efficiency of ω-Transaminase in Aqueous Mixture of Deep Eutectic Solvents” (Molecules, 2023)

How the values were obtained:
CC(=O)C(=O)O = test: Michaelis-Menten fit; acetophenone by HPLC; format: biochemical, Aspergillus terreus; details: phosphate buffer, no DES, 1-(R)-PEA co-substrate, PLP, pH 8.0, 40 °C
Source text: (§1) Michaelis-Menten fit; acetophenone by HPLC on ω-TA variant from Aspergillus terreus (E133A)

C[C@@H](N)c1ccccc1 = test: Michaelis-Menten fit; acetophenone by HPLC; format: biochemical, Aspergillus terreus; details: phosphate buffer, no DES, pyruvate constant, PLP, pH 8.0, 40 °C
Source text: as §1

Substance: ω-TA variant from Aspergillus terreus (E133A) (Aspergillus terreus NIH2624; E133A)
- Km (CC(=O)C(=O)O): 640 ± 70 µM
- kcat (CC(=O)C(=O)O): 0.54967 ± 0.0005 s⁻¹
- kcat/Km (CC(=O)C(=O)O): 853 M⁻¹ s⁻¹
- Km (C[C@@H](N)c1ccccc1): 650 ± 70 µM
- kcat (C[C@@H](N)c1ccccc1): 0.8027 ± 0.000833 s⁻¹
- kcat/Km (C[C@@H](N)c1ccccc1): 1230 M⁻¹ s⁻¹
